Biological target: the molecule itself
Test: native gel or EMSA; chemiluminescent EMSA; purified protein bound to the biotin-labelled AP1 probe (single CArG cassette) at room temperature; dimer band on the DNA probe

B1: AtSEP3, wild type, recombinant GST-tagged protein (natural protein, Arabidopsis thaliana, UniProt O22456 2-251, looked up)
chain: GRGRVELKRIENKINRQVTFAKRRNGLLKKAYELSVLCDAEVALIIFSNRGKLYEFCSSSSMLRTLERYQKCNYGAPEPNVPSREALAVELSSQQEYLKLKERYDALQRTQRNLLGEDLGPLSTKELESLERQLDSSLKQIRALRTQFMLDQLNDLQSKERMLTETNKTLRLRLADGYQMPLQLNPNQEEVDHYGRHHHQQQQHSQAFFQPLECEPILQIGYQGQQDGMGAGPSVNNYMLGWLPYDTNSI
notes: also called wild-type SEP3 protein; source: E. coli BL-21 (DE3), pGEX-4T-3, purified (GST-tagged protein purification kit)
B1: binds.

— publication PMC11955279, “The Molecular Mechanism of Interaction Between [sequence]3 and APETALA1 in Arabidopsis thaliana” (Plant Direct, 2025)
